Five substances from paper PMC5127646 can be followed below.

RBM5 OCRE domain (residues 451-511), wild type (human), sequence (P52756 other isoform, or with tags, fused parts or gaps): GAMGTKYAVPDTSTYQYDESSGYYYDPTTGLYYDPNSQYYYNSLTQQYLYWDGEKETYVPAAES

This test concerns the target RBM5 OCRE domain (residues 451-511), wild type (human) (UniProt P52756). Description: ITC; Sm tail constructs with wild type OCRE; SmN constructs (1 mM) titrated into OCRE (100 μM); ITC200, 24°C, 20 mM sodium phosphate pH 6.5, 50 mM NaCl; duplicates. On the technique in general: ITC needs no label: the signal is the heat of the interaction.
For “SmN 167-240 R2→E2 (from UniProt P63162 167-240) (domain or fragment)”, the Kd was 74 µM. This counts as double-digit micromolar. Next, “SmB 167-231 R1/R2→E1/E2 (from UniProt P14678-2 167-231) (domain or fragment)”: 159 µM. Turning to “SmN 167-240 R1/R2→E1/E2 (from UniProt P63162 167-240) (domain or fragment)”, the Kd amounted to 150 µM. Then “SmB 167-231 4P→4A (from UniProt P14678-2 167-231) (domain or fragment)”, with 20 µM. Next, “SmN 167-240 R1→E1 (from UniProt P63162 167-240) (domain or fragment)”: 66.5 µM.

Usually Kd stands for the equilibrium constant for the complex coming apart. A lower Kd goes with a tighter complex.
